For one experiment, the target named is Fcγ receptors. The experiment in a line: cell-based or functional assay.
In experiment [1] the target is RhD antigen on RhD+ red blood cells (UniProt Q02161). In words: flow cytometry on RhD+ red blood cells. In general terms: Flow cytometry measures light scatter and fluorescence of single cells or particles in a stream.
For experiment [2], the target named is Recombinant soluble human FcRn (human) (UniProt P55899). The experiment in a line: SPR (BIAcore X100), FcRn immobilised, pH 6.0.
Chain of Recombinant soluble human FcRn (human) (P55899 24-290 limits assumed, chain 1 of 2): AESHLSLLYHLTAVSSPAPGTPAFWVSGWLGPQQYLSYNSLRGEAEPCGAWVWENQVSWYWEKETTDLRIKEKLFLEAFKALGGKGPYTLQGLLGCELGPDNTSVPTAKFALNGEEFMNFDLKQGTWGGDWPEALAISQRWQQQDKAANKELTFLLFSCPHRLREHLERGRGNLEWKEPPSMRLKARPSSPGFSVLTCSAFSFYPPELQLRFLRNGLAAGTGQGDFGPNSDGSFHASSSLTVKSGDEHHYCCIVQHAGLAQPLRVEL
Chain of Recombinant soluble human FcRn (human) (P61769 21-119 limits assumed, chain 2 of 2, further chain): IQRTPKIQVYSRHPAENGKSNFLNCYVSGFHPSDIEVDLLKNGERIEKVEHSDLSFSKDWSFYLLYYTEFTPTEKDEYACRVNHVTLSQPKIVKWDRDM
Experiment [3] has the same target. In words: SPR, FcRn immobilised, pH 6.0; reference R593.
The target in experiment [4] is FcRn-p3 (fusion protein of β2 microglobulin chain and FcRn α-chain fused to bacteriophage protein p3 and CVDE protein) (UniProt P61769). The experiment in a line: ELISA, purified IgG from YB2/0, vs R593 IgG-WT.
Chain of FcRn-p3 (fusion protein of β2 microglobulin chain and FcRn α-chain fused to bacteriophage protein p3 and CVDE protein) (P61769 21-119, chain 1 of 2): as the sequence (P61769 21-119 limits assumed, chain 2 of 2, further chain) above
Chain of FcRn-p3 (fusion protein of β2 microglobulin chain and FcRn α-chain fused to bacteriophage protein p3 and CVDE protein) (P55899 24-290, chain 2 of 2, further chain): as the sequence (P55899 24-290 limits assumed, chain 1 of 2) above
Experiment [5] deals with FcγRI (R&D system) (human) (UniProt P12314). In words: ELISA, purified IgG from YB2/0, vs R593 IgG-WT. (In an ELISA, binding on a coated surface is turned into a signal by an enzyme label.)
Chain of FcγRI (R&D system) (human) (P12314 16-288 limits assumed): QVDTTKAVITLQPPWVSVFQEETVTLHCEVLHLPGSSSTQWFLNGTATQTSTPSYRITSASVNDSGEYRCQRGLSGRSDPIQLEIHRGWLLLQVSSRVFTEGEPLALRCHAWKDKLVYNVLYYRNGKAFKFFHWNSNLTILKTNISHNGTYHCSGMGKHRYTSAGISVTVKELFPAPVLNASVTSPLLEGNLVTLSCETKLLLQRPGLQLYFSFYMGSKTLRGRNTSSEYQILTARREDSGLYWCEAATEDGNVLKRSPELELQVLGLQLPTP
Experiment [6] concerns the target FcγRIIIaF158 (PX Therapeutics, His-tagged) (human) (UniProt P08637). In words: ELISA, purified IgG from YB2/0, vs R593 IgG-WT.
The target of experiment [7] is FcγRIIIaV158 (R&D system) (human) (UniProt P08637). The experiment in a line: ELISA, purified IgG from YB2/0, vs R593 IgG-WT.
Chain of FcγRIIIaV158 (R&D system) (human) (P08637 17-208 F176V limits assumed): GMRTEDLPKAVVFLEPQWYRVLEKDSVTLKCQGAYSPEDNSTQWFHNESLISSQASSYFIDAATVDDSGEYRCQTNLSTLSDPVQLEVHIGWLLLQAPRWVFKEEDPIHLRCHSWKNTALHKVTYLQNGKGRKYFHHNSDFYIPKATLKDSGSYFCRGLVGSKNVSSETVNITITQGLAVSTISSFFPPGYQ
Experiment [8] deals with FcγRIIaH131 (PX Therapeutics, His-tagged) (human) (UniProt P12318). The experiment in a line: ELISA, purified IgG from YB2/0, vs R593 IgG-WT.
Chain of FcγRIIaH131 (PX Therapeutics, His-tagged) (human) (P12318 34-217 limits assumed): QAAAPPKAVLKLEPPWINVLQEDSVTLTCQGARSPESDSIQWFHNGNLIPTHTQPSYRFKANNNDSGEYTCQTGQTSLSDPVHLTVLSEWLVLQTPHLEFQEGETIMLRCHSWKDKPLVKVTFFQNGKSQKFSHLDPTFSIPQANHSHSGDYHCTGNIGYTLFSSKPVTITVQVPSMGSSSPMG
In experiment [9] the target is FcγRIIaR131 (R&D system) (human) (UniProt P12318). The experiment in a line: ELISA, purified IgG from YB2/0, vs R593 IgG-WT.
Chain of FcγRIIaR131 (R&D system) (human) (P12318 36-218 H167R limits assumed): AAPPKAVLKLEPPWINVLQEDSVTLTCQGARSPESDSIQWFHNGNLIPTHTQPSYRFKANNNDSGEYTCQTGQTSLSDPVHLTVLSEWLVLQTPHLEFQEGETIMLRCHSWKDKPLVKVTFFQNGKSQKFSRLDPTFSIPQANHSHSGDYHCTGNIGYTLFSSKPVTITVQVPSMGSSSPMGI
The target of experiment [10] is FcγRIIb (R&D system) (human) (UniProt P31994). In words: ELISA, purified IgG from YB2/0, vs R593 IgG-WT.
Chain of FcγRIIb (R&D system) (human) (P31994 46-217 limits assumed): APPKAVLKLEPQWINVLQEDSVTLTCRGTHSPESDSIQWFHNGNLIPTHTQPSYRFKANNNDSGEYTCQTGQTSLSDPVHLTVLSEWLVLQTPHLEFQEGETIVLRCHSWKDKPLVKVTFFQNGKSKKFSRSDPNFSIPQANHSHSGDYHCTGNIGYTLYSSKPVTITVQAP
For experiment [11], the target named is FcRn-p3 (fusion protein of β2 microglobulin chain and FcRn α-chain fused to bacteriophage protein p3 and CVDE protein) (UniProt P61769). In words: ELISA, purified IgG from YB2/0, vs parent R593-259I/315D/434Y.
Experiment [12] deals with FcγRI (R&D system) (human) (UniProt P12314). Described as above.
Experiment [13] concerns the target FcγRIIIaF158 (PX Therapeutics, His-tagged) (human) (UniProt P08637). The experiment is described as above.
For experiment [14], the target named is FcγRIIIaV158 (R&D system) (human) (UniProt P08637). The description is as above.
The target in experiment [15] is FcγRIIaH131 (PX Therapeutics, His-tagged) (human) (UniProt P12318). The experiment is described as above.
Experiment [16] deals with FcγRIIaR131 (R&D system) (human) (UniProt P12318). Described as above.
Experiment [17] addresses FcγRIIb (R&D system) (human) (UniProt P31994). The experiment is described as above.
For experiment [18], the target named is FcRn-p3 (fusion protein of β2 microglobulin chain and FcRn α-chain fused to bacteriophage protein p3 and CVDE protein) (UniProt P61769). The experiment in a line: ELISA, purified IgG from YB2/0, vs parent R593-256N/378V/383N/434Y.
Experiment [19] has as its target FcγRI (R&D system) (human) (UniProt P12314). The experiment is described as above.
In experiment [20] the target is FcγRIIIaF158 (PX Therapeutics, His-tagged) (human) (UniProt P08637). Described as above.
Chain of FcγRIIIaF158 (PX Therapeutics, His-tagged) (human) (P08637 17-208 limits assumed): as the sequence (P08637 17-208 F176V limits assumed) above, with V160F counted along it
Experiment [21] addresses FcγRIIIaV158 (R&D system) (human) (UniProt P08637). The experiment is described as above.
Experiment [22] deals with FcγRIIaH131 (PX Therapeutics, His-tagged) (human) (UniProt P12318). Described as above.
The target of experiment [23] is FcγRIIaR131 (R&D system) (human) (UniProt P12318). The experiment is described as above.
Experiment [24] addresses FcγRIIb (R&D system) (human) (UniProt P31994). The description is as above.

For orientation: pKd means the Kd on a negative log10 scale, so that one unit is a factor of ten.

pKd: −log10 of the molar value.

Chain of RhD antigen on RhD+ red blood cells (Q02161 2-417 limits assumed): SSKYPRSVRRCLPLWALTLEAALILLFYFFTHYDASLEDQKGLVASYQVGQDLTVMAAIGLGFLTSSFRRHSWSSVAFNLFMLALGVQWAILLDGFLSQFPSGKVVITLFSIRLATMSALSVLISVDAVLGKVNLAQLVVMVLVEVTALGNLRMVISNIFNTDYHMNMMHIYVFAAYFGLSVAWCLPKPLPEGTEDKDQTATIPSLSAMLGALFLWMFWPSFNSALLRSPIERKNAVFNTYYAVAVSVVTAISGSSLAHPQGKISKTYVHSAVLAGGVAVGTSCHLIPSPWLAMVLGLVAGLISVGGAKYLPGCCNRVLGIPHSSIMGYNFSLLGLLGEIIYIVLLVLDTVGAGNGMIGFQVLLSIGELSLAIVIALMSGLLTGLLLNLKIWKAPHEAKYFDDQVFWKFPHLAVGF

With “R593 anti-RhD+ IgG1 variant 259I/294Del/315D/434Y (antibody)”, in the experiment with Fcγ receptors, the ADCC EC50 (ng/ml), lysis of RhD+ red cells worked out at 75.9 ng/mL. The substance further had an ADCC Max. Lysis (%) with Fcγ receptors of 4%. The Ag binding MFI (Arbitrary Unit) in experiment [1] was 47.9. The negative-log Kd (pKd) in experiment [2] was 7.69. Also, the Ratio WT/IgG (KD) in [3] amounted to 9.41. The Ratio/IgG-WT in experiment [4] was 7.19; in experiment [5], 0.13; in [6], 0.07; in [7] it was 0.07; in experiment [8], 0.1; in experiment [9] it was 0.12. The Ratio/IgG-WT in experiment [10] is 0.18. Also, the ratio to the IgG1 without 294Del in [11] was found to be 0.91; in experiment [12], 0.12; in experiment [13], 0.07; in experiment [14] it was 0.07; in experiment [15] it was 0.11; in experiment [16], 0.11. The ratio to the IgG1 without 294Del in [17] came to 0.13.
“R593 anti-RhD+ IgG1 variant 256N/294Del/378V/383N/434Y (antibody)”: the ADCC EC50 (ng/ml), lysis of RhD+ red cells with Fcγ receptors stood at 75.9 ng/mL. Further, the ADCC Max. Lysis (%) with Fcγ receptors was 6%. In [1], this substance yielded an Ag binding MFI (Arbitrary Unit) of 44.7. Further, the negative logarithm of the Kd (pKd) in experiment [2] is 8.37. In addition, the Ratio WT/IgG (KD) in experiment [3] worked out at 44.9. Besides, the Ratio/IgG-WT was determined as 7.48 in experiment [4]; 0.12 in experiment [5]; 0.1 in experiment [6]; 0.1 in experiment [7]; 0.17 in experiment [8]; 0.17 in [9]. The Ratio/IgG-WT in experiment [10] worked out at 0.27. Further, the ratio to the IgG1 without 294Del in experiment [18] is 1; in [19], 0.05; in experiment [20], 0.11; in experiment [21] it was 0.1; in experiment [22] it was 0.17; in experiment [23], 0.16. In [24], the ratio to the IgG1 without 294Del is 0.17.

For the origin of these results see patent US20140378663A1.
